Read-outs that look alike come from different tables or passages of the source.
Tests used:
Avd = molecular target: Avd; set-up: method as in PMID 17052607; conditions: read-out: Kd of Avd-HABA complex; cited from earlier work
[1] = molecular target: the molecule itself; assay: SEC; Superdex200 Increase 5/150GL, 50 mM sodium phosphate, 650 mM NaCl, pH 7, 0.1 ml/min, 20°C; molecular weight from a standard curve of elution volumes of markers
[2] = Fluorometric assay: quenching of intrinsic protein fluorescence by unconjugated ligand; assay type: binding; conditions: 100 nM protein, pH 7, 25°C, read-out: Kd for progesterone
Experimental: The binding affinity of the unconjugated small molecules to antidins was determined utilizing the intrinsic fluorescence originating from the aromatic amino acid residues (mainly tryptophan and tyrosine) of Avd and the fluorescence quenching caused by ligand binding. In brief, 100 nM protein samples in 50 mM NaH2PO4/Na2HPO4, 650 mM NaCl, pH 7 were excited at 280 nm, and emission was collected at 350 nm using QuantaMaster Spectrofluorometer (Photon Technology International, Inc.) with 2 nm slits. The assay was performed in a quartz cuvette with stirring at 25°C. The ligand was added to the protein sample in small aliquots (6–50 000 nM) and the fluorescence intensity was monitored after a short incubation. The dissociation constant (Kd) was determined from the resulting quenching curve using GraphPad Prism (GraphPad Software, Inc.). The data were fitted to a quadratic equation [72] for tight binding interactions, which takes ligand depletion and nonspecific binding into account (described in detail in [38]) (Fig 6).

[3] = set-up: method as in PMID 26550684; conditions: fluorometry-based assay, non-conjugated ligand, earlier study; read-out: Kd for progesterone; cited from earlier work
[4] = Differential scanning calorimetry with biotin; assay type: binding; conditions: DSC, ligand three times the protein concentration
Experimental: (§1) The thermal stability of the antidin sbAvd-7 in the presence and absence of ligands was analyzed using an automated VP-Capillary DSC System (Malvern, Microcal Inc.) essentially as described in [73]. Protein samples in the sodium phosphate buffer (50 mM, pH 7) containing 650 mM NaCl were degassed prior to the measurement. The protein concentration in the cell was 6.4 μM, and the molar concentration of the ligands (D-biotin (Biochemica, Fluka) and progesterone (Steraloids Inc., USA)) were three times higher (Fig 6).

[5] = Differential scanning calorimetry, no ligand; assay type: physicochemical; conditions: DSC, absence of ligand, 6.4 μM protein, pH 7
Experimental: as §1

[6] = Differential scanning calorimetry with progesterone; assay type: binding; conditions: DSC, ligand three times the protein concentration
Experimental: as §1

[7] = molecular target: the molecule itself; assay: crystal structure; co-crystallised with progesterone, sitting drop vapour diffusion, 21°C; 2.80 Å; two monomers in the asymmetric unit, tetrameric biological unit

## O=C(O)c1ccccc1N=Nc1ccc(O)cc1 [HABA, 2-(4’-hydroxybenzene)azobenzoic acid]
Avd
  Kd: ~6000 nM

B1: sbAvd-7 antidin (engineered chicken avidin) (designed binder)
chain: ARKCSLTGKWTNRMNHNMTIGAVNSRGEFTGTYIASLNATSNEIKESPLHGTQNTINKRTQPTFGFTVNWKFSESTAVFTGQCFIDRNGKEVLKTMWLLRSSVNDIGDDWKATRVGINIFTRLRTQKE
notes: selected from the phage display library AvLib-4 (template sbAvd-1); Subcloned with the OmpA signal peptide and a C-terminal 6xHis-tag into pET101/D; source: E. coli BL21-AI or OverExpress C43(DE3), purified (Ni-NTA)
[1]
  stoichiometry N: 4

B2: sbAvd-9: antidin with RMNH at 13-16, YYLP at 35-38 and T77A; from AvLib-4 (protein, UniProt P02701 25-152, looked up, variant D13R L14M G15N S16H T35Y A36Y V37L T38P T77A)
Avidin: ARKCSLTGKWTNRMNHNMTIGAVNSRGEFTGTYIYYLPATSNEIKESPLHGTQNTINKRTQPTFGFTVNWKFSESTAVFTGQCFIDRNGKEVLKTMWLLRSSVNDIGDDWKATRVGINIFTRLRTQKE
[2]
  Kd: 13 nM

B3: sbAvd-2 (I117Y): sbAvd-2 with stabilizing mutation I117Y; co-crystallized with progesterone, PDB:5LUR (protein)
chain: ARKCSLTGKWTNRMNHNMTIGAVNSRGEFTGTYIATVNATSNEIKESPLHGTQNTINKRTQPTFGFTVNWKFSESTTVFTGQCFIDRNGKEVLKTMWLLRSSVNDIGDDWKATRVGYNIFTRLRTQKE
[3]
  Kd: 180 nM

B4: sbAvd-2: antidin with RMNH at 13-16 and ATVN at positions 35-38; from AvLib-3 (protein, UniProt P02701 25-152, looked up, variant D13R L14M G15N S16H T35A A36T T38N)
Avidin: ARKCSLTGKWTNRMNHNMTIGAVNSRGEFTGTYIATVNATSNEIKESPLHGTQNTINKRTQPTFGFTVNWKFSESTTVFTGQCFIDRNGKEVLKTMWLLRSSVNDIGDDWKATRVGINIFTRLRTQKE
[3]
  Kd: 111 nM

B5: sbAvd-5: antidin with RMNH at 13-16 and VPHP at positions 35-38; from AvLib-3 (protein, UniProt P02701 25-152, looked up, variant D13R L14M G15N S16H T35V A36P V37H T38P)
Avidin: ARKCSLTGKWTNRMNHNMTIGAVNSRGEFTGTYIVPHPATSNEIKESPLHGTQNTINKRTQPTFGFTVNWKFSESTTVFTGQCFIDRNGKEVLKTMWLLRSSVNDIGDDWKATRVGINIFTRLRTQKE
[3]
  Kd: 108 nM

B6: sbAvd-8: antidin with RMNH at 13-16, Y33F, A36Y, V37S, T38Y and T77A; from AvLib-4 (protein, UniProt P02701 25-152, looked up, variant D13R L14M G15N S16H Y33F A36Y V37S T38Y T77A)
Avidin: ARKCSLTGKWTNRMNHNMTIGAVNSRGEFTGTFITYSYATSNEIKESPLHGTQNTINKRTQPTFGFTVNWKFSESTAVFTGQCFIDRNGKEVLKTMWLLRSSVNDIGDDWKATRVGINIFTRLRTQKE
[2]
  Kd: 11 nM

B7: sbAvd-7: antidin with RMNH at 13-16, ASLN at 35-38 and T77A; from AvLib-4, progesterone panning (protein)
chain: ARKCSLTGKWTNRMNHNMTIGAVNSRGEFTGTYIASLNATSNEIKESPLHGTQNTINKRTQPTFGFTVNWKFSESTAVFTGQCFIDRNGKEVLKTMWLLRSSVNDIGDDWKATRVGINIFTRLRTQKE
modifications: left off: 6xHis, C-terminal, state not stated
notes: antidin with RMNH at 13-16, ASLN at 35-38 and T77A; from AvLib-4, progesterone panning
[4]
  ΔTm with biotin: 0.27 °C
[5]
  Tm: 85.84 °C
[6]
  ΔTm with progesterone: 10.23 °C

B8: sbAvd-2 (I117Y) antidin (engineered chicken avidin) (designed binder)
chain: ARKCSLTGKWTNRMNHNMTIGAVNSRGEFTGTYIATVNATSNEIKESPLHGTQNTINKRTQPTFGFTVNWKFSESTTVFTGQCFIDRNGKEVLKTMWLLRSSVNDIGDDWKATRVGYNIFTRLRTQKE
notes: position 37 stays V; Crystallised with progesterone; also called sbAvd-2 (I117Y) mutant
[7]
  stoichiometry N: 4

B9: sbAvd-6: antidin with RMNH at 13-16 and VSSN at positions 35-38; from AvLib-3 (protein, UniProt P02701 25-152, looked up, variant D13R L14M G15N S16H T35V A36S V37S T38N)
Avidin: ARKCSLTGKWTNRMNHNMTIGAVNSRGEFTGTYIVSSNATSNEIKESPLHGTQNTINKRTQPTFGFTVNWKFSESTTVFTGQCFIDRNGKEVLKTMWLLRSSVNDIGDDWKATRVGINIFTRLRTQKE
[3]
  Kd: 117 nM

B10: sbAvd-4: antidin with RMNH at 13-16 and PYLS at positions 35-38; from AvLib-3 (protein, UniProt P02701 25-152, looked up, variant D13R L14M G15N S16H T35P A36Y V37L T38S)
Avidin: ARKCSLTGKWTNRMNHNMTIGAVNSRGEFTGTYIPYLSATSNEIKESPLHGTQNTINKRTQPTFGFTVNWKFSESTTVFTGQCFIDRNGKEVLKTMWLLRSSVNDIGDDWKATRVGINIFTRLRTQKE
[3]
  Kd: 135 nM

B11: hbAvd-4: antidin S16A, Y33F, T40P, F72A, S73Y, S75Y, N118A; from AvLib-5, hydrocortisone panning (protein, UniProt P02701 25-152, looked up, variant S16A Y33F T40P F72A S73Y S75Y N118A)
Avidin: ARKCSLTGKWTNDLGANMTIGAVNSRGEFTGTFITAVTAPSNEIKESPLHGTQNTINKRTQPTFGFTVNWKAYEYTTVFTGQCFIDRNGKEVLKTMWLLRSSVNDIGDDWKATRVGIAIFTRLRTQKE
[2]
  Kd: 39 nM

Reference: article PMC6382169, “Molecular features of steroid-binding antidins and their use for assaying serum progesterone” (PLoS ONE, 2019)
